Target: Human CD16 (biotinylated, Sino Biological Inc, cat#10389-H27H1-B) (human, UniProt P08637 17-208, biotinylated)
Test: ELISA, biotinylated CD16 captured on neutravidin, anti-human Fab-HRP detection

Sequence of Human CD16 (biotinylated, Sino Biological Inc, cat#10389-H27H1-B) (P08637 17-208): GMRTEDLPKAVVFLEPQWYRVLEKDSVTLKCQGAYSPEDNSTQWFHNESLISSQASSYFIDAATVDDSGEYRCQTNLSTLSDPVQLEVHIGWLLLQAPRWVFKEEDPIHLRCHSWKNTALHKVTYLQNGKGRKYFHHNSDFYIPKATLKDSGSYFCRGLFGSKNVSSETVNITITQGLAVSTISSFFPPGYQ

- EC50: 3.58 µg/mL
B1: IgG3-MAB1 (antibody)
chain 1: QLLLQESGPGLVKPSETLSLTCTVSGGSLSSSFSYWVWIRQPPGKGLEWIGTIYYSGNTYYNPSLKSRLTISVDTSKNHFSLKLSSVTAADTAVYYCARRAGILTGYLDSWGQGTLVTVSS
chain 2: SYVLTQSPSVSVAPGQTARITCGGNNIGSKSVHWYQQKPGQAPVLVVYDDSDRPSGIPERFSASNSGNTATLTISRVEAGDEADYYCQVWDSSSDHVVFGGGTKLTVL
